In series [1] the test system is methylated p53 bound to the p21 promoter in U2OS cells. The series can be described thus: ChIP assay of methylated p53 at the p21 promoter. In kind it is cell-based. As to conditions: 0.5 μM of Adr, time course. As for the experimental part:
U2OS and USOS Set9 siRNA cells were treated with 0.5 μM of Adr and collected at the indicated time points for a CHIP assay performed using anti-p53-Lys372me antibody. The amounts of precipitated p21 promoter were determined by quantitative RT-PCR.
It was observed that p53 methylation likely precedes acetylation. Therefore, it was expected that p53 methylation must occur at very early times after DNA damage. […] At the indicated time periods, cells were harvested, and DNA-protein complexes were cross-linked and subjected to chromatin immunoprecipitation (ChIP) analysis, initially using anti-p53-Lys372me antibodies. To increase the specificity of ChIP, the anti-p53-Lys372me immunoprecipitates were eluted from the beads with 1% SDS, diluted with immunoprecipitation buffer and then subjected to a second round of immunoprecipitation using anti-p53 antibody.
ChIP assay on U2OS and U2OS cells expressing siRNA-Set9 was performed using established methods (Barlev, et al. (2001) supra). Briefly, cells were cross-linked with 1% formaldehyde, neutralized with 0.125 M glycine and harvested by scraping. The chromatin fraction was prepared by incubating the cells in lysis buffer (10 mM Tris pH 8.0, 200 mM NaCl, 10 mM EDTA, 0.5 mM EGTA, 1 mM PMSF). The insoluble fraction was sonicated and subjected to immunoprecipitation with anti-p53-Lys372me serum. […]

The subject of another series is U2OS cells. The series can be described thus: Annexin V apoptotic staining after DNA damage. It is filed as cell-based. From the text:
This was directly tested by measuring the p53-dependent apoptotic response induced by DNA damage. […] The treatment of Set9-overexpressing cells with Adr further increased the Annexin V staining. […] Furthermore, Set9-mediated regulation of cell cycle and apoptosis was p53-dependent, because in the absence of p53, transfected Set9 was unable to induce p21 gene expression in H1299 (FIG. 4) or apoptosis in Saos-2 cells in response to DNA damage.

Series [2] relates to methylated Lys372-p53 in 293F cells. The series can be described thus: immunoprecipitation with anti-p53-Lys372me and p53 western blot in 293F cells. As to conditions: Adr-treated vs untreated. It is filed as cell-based. Here is the method:
The in vivo methylation of p53 at lysine 372 under conditions in which the intracellular concentration of Set9 was unaltered was also determined. 293F cells were treated with adriamycine (Adr), an agent that induces DNA damage resulting in the activation of a p53-responsive pathway. Cell extracts prepared from untreated and Adr-treated cells were then compared for total amounts of p53 protein using monoclonal p53 antibody. […] Both extracts were also subjected to immunoprecipitation with anti-p53-Lys372me antibodies followed by western blot analysis with p53-specific antibody.

Series [3] has as its target T1, Set9 construct composed of residues 52-366 (UniProt Q8WTS6 52-366).
T1 sequence (looked up): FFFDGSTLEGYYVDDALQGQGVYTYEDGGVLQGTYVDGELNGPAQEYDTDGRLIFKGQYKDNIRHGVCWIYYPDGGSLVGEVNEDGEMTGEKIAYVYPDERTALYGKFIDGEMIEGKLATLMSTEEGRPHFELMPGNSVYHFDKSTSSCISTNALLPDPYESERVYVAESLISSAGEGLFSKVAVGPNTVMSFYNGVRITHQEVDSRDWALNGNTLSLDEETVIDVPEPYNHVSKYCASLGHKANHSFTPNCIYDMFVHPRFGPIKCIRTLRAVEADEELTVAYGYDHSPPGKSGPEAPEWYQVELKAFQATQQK
The series can be described thus: cell-based or functional assay.

The subject of series [4] is p21 gene expression in U2OS cells. The series can be described thus: p21 gene expression by quantitative real-time PCR. It is filed as cell-based, human. As to conditions: normalized to GAPDH. As for the experimental part: U2OS cells were stably transfected with FLAG-Set9 wild-type, FLAG-Set9 mutant or siRNA against Set9. Non-transfected cells served as control. Cells were mock-treated, or treated with 0.3 μM of 5-fluoro-uracil (5-FU) or adriamycine (Adr) as indicated. p21 (FIG. 3A), BAX (FIG. 3B) and MDM2 (FIG. 3C) gene expression was analyzed by quantitative real-time PCR using primers specific for the coding region. Shown are the relative values normalized to GAPDH signal.
Total RNA was extracted using the TRI reagent (INVITROGEN) according to the manufacturer's instructions. First-strand complementary DNA was synthesized using READY-TO-GO You-Prime First-Strand Beads (Amersham Biosciences, Piscataway, N.J.).
Real-time PCR was performed with the DNA ENGINE OPTICON 2 System (MJ Research, Waltham, Mass.) according to the manufacturer's instructions. The primers for human p21 (Cip1/WAF1′) and GAPDH (GENBANK accession numbers NM_000389 and NP_002037, respectively) were designed using the Primer3 program. […] Fluorescence was measured at the end of the elongation phase at 79° C. Expression levels were calculated as a ratio between p21 and GAPDH signals. […]
On the technique in general: Quantitative PCR measures a nucleic acid by following its amplification.

For another series, the system named is p53 in U2OS cells. The series can be described thus: p53 Lys372 methylation and total p53 levels in U2OS cells. It is filed as cell-based.

On to `COc1cccc2c1C(=O)c1c(O)c3c(c(O)c1C2=O)C[C@@](O)(C(=O)CO)C[C@@H]3O[C@H]1C[C@H](N)[C@H](O)[C@H](C)O1` [Adr, adriamycine], for which, in series [1], the “amount of methylated p53 bound to the p21 promoter” value is given as “increased as early as 1.5 hours after DNA damage”. For the same molecule, the “number of cells positively stained for Annexin V” value in the series with U2OS cells was “increased the number of cells positively stained for Annexin V”. In series [2], the “intracellular concentration of methylated Lys372-p53 protein” value is on record as “increased the intracellular concentration of methylated Lys372-p53 protein”. In addition, in series [2] (monoclonal p53 antibody), the “levels of intracellular p53” value is on record as “did not increase the levels of intracellular p53”.
On to LKSKKGQSTSRHKKLMFKTY [wild-type p53 20-mer], for which the “enzymatic activity, methyltransferase assays with 3H-labeled S-adenosyl-L-methionine (AdoMet)” value in series [3] is 6 fold.

B1: 5′-gat ccg cac ctg gac gat gac gga tta cct tcc tgt caG TAATCCGTCATCGTCCAGGTG Ctt ttt g-3′ (nucleic acid)
chain: GATCCGCACCTGGACGATGACGGATTACCTTCCTGTCAGTAATCCGTCATCGTCCAGGTGCTTTTTG
modifications: expressed or natural sequence
notes: stem-loop siRNA targeting SET9, expressed from lentiviral pLSL-GFP vector
On to B1, for which, in series [4], the “p21 expression upon DNA damage” value is “impaired p21 expression upon DNA damage”. Also, the “amount of methylated p53 bound to the p21 promoter” value in series [1] is “did not exhibit a significant increase in methylated p53 at the p21 promoter”. Besides, in the series with p53 in U2OS cells, the “total levels of p53” value is given as “decreased the total levels of p53”. Also, the “Lys372 methylation of p53” value in the series on p53 in U2OS cells (upon Adr treatment) is listed as “decreased Lys372 methylation of p53”.
